From article PMC3835790, “Statistical Experimental Design Guided Optimization of a One-Pot Biphasic Multienzyme Total Synthesis of Amorpha-4,11-diene” (PLoS ONE, 2013) come the findings set out here.

The subject of this data set is CC(C)=CCC/C(C)=C/CC/C(C)=C/CO[P@@](=O)(O)OP(=O)(O)O. Nature of the data set: purified protein. The conditions noted are these: 100 mM Tris/HCl pH 7.4, 30°C, substrate not printed in the table row, FPP from the pathway.

What is called Km is the substrate concentration at which the rate is half of its maximum. The kcat is the number of substrate molecules converted per active site and unit of time at saturation.

Chain of amorpha-4,11-diene synthase (Ads) (Artemisia annua) (chain, as listed by the source): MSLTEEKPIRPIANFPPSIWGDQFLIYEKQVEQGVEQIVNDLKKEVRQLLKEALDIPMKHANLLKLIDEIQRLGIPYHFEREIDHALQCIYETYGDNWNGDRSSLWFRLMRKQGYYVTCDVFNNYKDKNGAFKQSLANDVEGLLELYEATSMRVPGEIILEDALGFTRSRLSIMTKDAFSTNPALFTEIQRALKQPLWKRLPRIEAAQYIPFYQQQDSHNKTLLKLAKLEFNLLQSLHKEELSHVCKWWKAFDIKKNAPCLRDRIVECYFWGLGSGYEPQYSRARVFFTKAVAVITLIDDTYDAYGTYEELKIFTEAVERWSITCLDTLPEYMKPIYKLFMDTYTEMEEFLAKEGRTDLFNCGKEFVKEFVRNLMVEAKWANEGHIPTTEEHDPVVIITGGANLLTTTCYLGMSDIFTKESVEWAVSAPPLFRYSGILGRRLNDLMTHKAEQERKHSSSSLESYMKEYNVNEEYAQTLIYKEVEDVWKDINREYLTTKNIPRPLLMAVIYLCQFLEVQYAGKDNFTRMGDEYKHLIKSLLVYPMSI

For the substance “amorpha-4,11-diene synthase (Ads) (Artemisia annua)”, the Michaelis-Menten constant (Km) turned out to be 43.72 ± 10.4 µM and the turnover number (kcat) amounted to 0.05 s⁻¹.
